According to the supplement of paper PMC9112550, “Optimization of the antimicrobial peptide Bac7 by deep mutational scanning” (BMC Biology, 2022):

Test system: Escherichia coli TOP10
Assay: shrunken log2 fold change of peptide-encoding DNA abundance (4.5 h post-induction vs induction); higher = less antimicrobial activity (less host growth inhibition)
Conditions: time post-induction: 4.5 h; library: site-saturation at positions 5, 18, 19, 20
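Further: peptides expressed intracellularly from a pBAD plasmid library in pooled LB shake-flask culture, induced with 0.3% L-arabinose, DNA abundance read by NGS, three biological replicates, DESeq2 with apeglm shrinkage.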

First: RRIRPRPPRLPRPRPRPWAIPRP
Second: RRIRPRPPRLPRPRPRPWCLPRP
The “shrunken log2 fold change” value of the first is higher: -0.0391 for the first, -0.514 for the second.

Compared with RRIRPRPPRLPRPRPRPWDSPRP, RRIRPRPPRLPRPRPRPWGHPRP is higher in “shrunken log2 fold change” value: -0.456 for the first, -0.0804 for the second.

Going from RRIRPRPPRLPRPRPRPWGSPRP to RRIRPRPPRLPRPRPRPWGVPRP, the “shrunken log2 fold change” value falls from 0.216 to -0.128.

First: RRIRPRPPRLPRPRPRPWHKPRP
Second: RRIRPRPPRLPRPRPRPWHQPRP
The “shrunken log2 fold change” value of the first is lower: -0.29 for the first, 0.0649 for the second.

First: RRIRPRPPRLPRPRPRPWHWPRP
Second: RRIRPRPPRLPRPRPRPWIMPRP
The “shrunken log2 fold change” value of the first is higher: -0.0102 for the first, -0.236 for the second.

RRIRPRPPRLPRPRPRPWIQPRP and RRIRPRPPRLPRPRPRPWKLPRP are within 0.2 log units of each other in “shrunken log2 fold change” value: 0.0178 for the first, -0.0861 for the second.

RRIRPRPPRLPRPRPRPWKYPRP and RRIRPRPPRLPRPRPRPWNCPRP are within 0.2 log units of each other in “shrunken log2 fold change” value: -0.269 for the first, -0.134 for the second.

Compared with RRIRPRPPRLPRPRPRPWNQPRP, RRIRPRPPRLPRPRPRPWNSPRP is higher in “shrunken log2 fold change” value: -0.759 for the first, -0.163 for the second.

RRIRPRPPRLPRPRPRPWPWPRP and RRIRPRPPRLPRPRPRPWRCPRP are within 0.2 log units of each other in “shrunken log2 fold change” value: 0.0232 for the first, 0.199 for the second.

RRIRPRPPRLPRPRPRPWSDPRP and RRIRPRPPRLPRPRPRPWSMPRP are within 0.2 log units of each other in “shrunken log2 fold change” value: -0.267 for the first, -0.155 for the second.

First: RRIRPRPPRLPRPRPRPWSSPRP
Second: RRIRPRPPRLPRPRPRPWTHPRP
The “shrunken log2 fold change” value of the first is lower: -0.977 for the first, -0.0188 for the second.

RRIRPRPPRLPRPRPRPWTTPRP and RRIRPRPPRLPRPRPRPWVEPRP are within 0.2 log units of each other in “shrunken log2 fold change” value: -0.012 for the first, 0.17 for the second.

RRIRPRPPRLPRPRPRPWVFPRP and RRIRPRPPRLPRPRPRPWVTPRP are within 0.2 log units of each other in “shrunken log2 fold change” value: 0.0691 for the first, -0.00388 for the second.

RRIRPRPPRLPRPRPRPWWMPRP and RRIRPRPPRLPRPRPRPWWYPRP are within 0.2 log units of each other in “shrunken log2 fold change” value: 0.0483 for the first, -0.121 for the second.

Compared with RRIRPRPPRLPRPRPRPWYGPRP, RRIRPRPPRLPRPRPRPYACPRP is lower in “shrunken log2 fold change” value: -0.429 for the first, -0.921 for the second.

Going from RRIRPRPPRLPRPRPRPYAGPRP to RRIRPRPPRLPRPRPRPYCAPRP, the “shrunken log2 fold change” value falls from -0.00254 to -0.312.

RRIRPRPPRLPRPRPRPYCDPRP and RRIRPRPPRLPRPRPRPYCKPRP are within 0.2 log units of each other in “shrunken log2 fold change” value: -0.907 for the first, -0.896 for the second.

Compared with RRIRPRPPRLPRPRPRPYDNPRP, RRIRPRPPRLPRPRPRPYDQPRP is higher in “shrunken log2 fold change” value: -0.415 for the first, -0.15 for the second.

RRIRPRPPRLPRPRPRPYEEPRP and RRIRPRPPRLPRPRPRPYEHPRP are within 0.2 log units of each other in “shrunken log2 fold change” value: -0.214 for the first, -0.408 for the second.

Going from RRIRPRPPRLPRPRPRPYEIPRP to RRIRPRPPRLPRPRPRPYEWPRP, the “shrunken log2 fold change” value falls from -0.0187 to -0.874.

Going from RRIRPRPPRLPRPRPRPYFIPRP to RRIRPRPPRLPRPRPRPYHMPRP, the “shrunken log2 fold change” value rises from -0.656 to -0.316.

First: RRIRPRPPRLPRPRPRPYHQPRP
Second: RRIRPRPPRLPRPRPRPYHVPRP
The “shrunken log2 fold change” value of the first is higher: 0.0122 for the first, -0.199 for the second.

RRIRPRPPRLPRPRPRPYIHPRP and RRIRPRPPRLPRPRPRPYIMPRP are within 0.2 log units of each other in “shrunken log2 fold change” value: -0.946 for the first, -0.976 for the second.

Going from RRIRPRPPRLPRPRPRPYLDPRP to RRIRPRPPRLPRPRPRPYNCPRP, the “shrunken log2 fold change” value falls from -0.908 to -1.4.

RRIRPRPPRLPRPRPRPYNSPRP and RRIRPRPPRLPRPRPRPYPAPRP are within 0.2 log units of each other in “shrunken log2 fold change” value: -0.55 for the first, -0.582 for the second.

First: RRIRPRPPRLPRPRPRPYPHPRP
Second: RRIRPRPPRLPRPRPRPYQLPRP
The “shrunken log2 fold change” value of the first is higher: -0.237 for the first, -0.441 for the second.

RRIRPRPPRLPRPRPRPYRFPRP and RRIRPRPPRLPRPRPRPYRSPRP are within 0.2 log units of each other in “shrunken log2 fold change” value: -0.261 for the first, -0.295 for the second.

Going from RRIRPRPPRLPRPRPRPYSPPRP to RRIRPRPPRLPRPRPRPYTLPRP, the “shrunken log2 fold change” value rises from -1.23 to -0.54.

RRIRPRPPRLPRPRPRPYTWPRP and RRIRPRPPRLPRPRPRPYVIPRP are within 0.2 log units of each other in “shrunken log2 fold change” value: -0.446 for the first, -0.401 for the second.

Compared with RRIRPRPPRLPRPRPRPYVQPRP, RRIRPRPPRLPRPRPRPYVRPRP is lower in “shrunken log2 fold change” value: -0.147 for the first, -0.61 for the second.

RRIRQRPPRLPRPRPRPAACPRP and RRIRQRPPRLPRPRPRPAAHPRP are within 0.2 log units of each other in “shrunken log2 fold change” value: 0.183 for the first, 0.179 for the second.

RRIRQRPPRLPRPRPRPADHPRP and RRIRQRPPRLPRPRPRPADMPRP are within 0.2 log units of each other in “shrunken log2 fold change” value: -0.0888 for the first, -0.0927 for the second.

Going from RRIRQRPPRLPRPRPRPADPPRP to RRIRQRPPRLPRPRPRPAELPRP, the “shrunken log2 fold change” value falls from 0.209 to -0.00135.

Compared with RRIRQRPPRLPRPRPRPAEYPRP, RRIRQRPPRLPRPRPRPAGMPRP is lower in “shrunken log2 fold change” value: 0.0734 for the first, -0.148 for the second.

Compared with RRIRQRPPRLPRPRPRPAGWPRP, RRIRQRPPRLPRPRPRPAHAPRP is lower in “shrunken log2 fold change” value: 0.808 for the first, 0.0691 for the second.

RRIRQRPPRLPRPRPRPAHDPRP and RRIRQRPPRLPRPRPRPAHIPRP are within 0.2 log units of each other in “shrunken log2 fold change” value: -0.161 for the first, -0.137 for the second.

First: RRIRQRPPRLPRPRPRPAHSPRP
Second: RRIRQRPPRLPRPRPRPAKSPRP
The “shrunken log2 fold change” value of the first is higher: 0.426 for the first, -0.0281 for the second.

RRIRQRPPRLPRPRPRPALDPRP was tested, and the “shrunken log2 fold change” value was 0.296.
